One block for each binder: values may come before it. Bridge positions count the residues as written; N and C are the ends. Square brackets hold non-standard residues; d marks the D form. Trp(7-Me) = Cc1cccc2c(C[C@H](N)C(=O)O)c[nH]c12; 2Nal = N[C@@H](Cc1ccc2ccccc2c1)C(=O)O; AEF = NCCOc1ccc(C[C@H](N)C(=O)O)cc1; Cit = NC(=O)NCCC[C@H](N)C(=O)O; αMeL = CC(C)C[C@](C)(N)C(=O)O; Pen = CC(C)(S)[C@H](N)C(=O)O; αMeK = C[C@](N)(CCCCN)C(=O)O; Aib = CC(C)(N)C(=O)O; βAla = NCCC(=O)O
Key:
IL-23R [1] = target: T1, IL-23R (human, UniProt Q5VWK5 24-629); assay: cell-based or functional assay
T1 sequence (looked up): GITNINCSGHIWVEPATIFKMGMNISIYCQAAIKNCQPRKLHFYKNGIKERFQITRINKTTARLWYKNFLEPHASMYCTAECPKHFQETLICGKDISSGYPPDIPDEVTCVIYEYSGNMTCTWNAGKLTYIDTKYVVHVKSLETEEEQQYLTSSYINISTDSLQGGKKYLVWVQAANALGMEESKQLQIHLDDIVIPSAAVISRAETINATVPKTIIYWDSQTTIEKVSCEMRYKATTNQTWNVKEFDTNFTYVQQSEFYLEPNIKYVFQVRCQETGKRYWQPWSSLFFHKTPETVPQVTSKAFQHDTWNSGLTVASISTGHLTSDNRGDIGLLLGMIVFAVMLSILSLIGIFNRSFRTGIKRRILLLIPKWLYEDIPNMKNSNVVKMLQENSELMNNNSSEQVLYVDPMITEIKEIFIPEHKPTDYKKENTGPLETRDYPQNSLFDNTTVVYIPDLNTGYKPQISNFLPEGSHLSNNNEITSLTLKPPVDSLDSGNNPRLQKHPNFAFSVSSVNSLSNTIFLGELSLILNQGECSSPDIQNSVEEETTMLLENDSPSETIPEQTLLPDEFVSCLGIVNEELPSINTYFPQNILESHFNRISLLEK

IL-23R [2] = target: T1, IL-23R; assay: cell-based or functional assay; remark: listed apart in the source

B2: SEQ ID NO: 245 (peptide)
peptide: XNTXKXXXXKNL
modifications: Ac-[Pen]-NT-[W(7-Me)]-[Lys(Ac)]-[Pen]-Phe[4-(2-aminoethoxy)]-[2-Nal]-[a-MeLys]-[Lys(Ac)]-N-[(D)Leu]-NH2; Pen-Pen disulfide
- NK Cell Assay (nM) IC50 (IL-23R [1]): < 10 nM
- pStat3 HTRF (nM) IC50 (IL-23R [2]): < 1 nM

B4: SEQ ID NO: 272 (peptide)
peptide: XNTXKXXXXKHX
modifications: Ac-[Pen]-N-T-[W(7-Me)]-[Lys(Ac)]-[Pen]-Phe[4-(2-aminoethoxy)]-[2-Nal]-[a-MeLys]-[Lys(Ac)]-H-[bA]-NH2; Pen-Pen disulfide
- NK Cell Assay (nM) IC50 (IL-23R [1]): < 10 nM

B6: SEQ ID NO: 201 (peptide)
peptide: XNTXQXXXXKNX
modifications: Ac-[Pen]-NT-[W(7-Me)]-Q-[Pen]-Phe[4-(2-aminoethoxy)]-[2-Nal]-[a-MeLeu]-[Lys(Ac)]-N-[bA]-NH2; Pen-Pen disulfide
- NK Cell Assay (nM) IC50 (IL-23R [1]): < 10 nM
- pStat3 HTRF (nM) IC50 (IL-23R [2]): < 1 nM

Binder: Ac-[Pen]NT[Trp(7-Me)][Cit][Pen][AEF][2Nal][αMeL]K(Ac)N[βAla]-NH2 (disulfide 1-6) [SEQ ID NO: 227]
- NK Cell Assay (nM) IC50 (IL-23R [1]): < 10 nM
- pStat3 HTRF (nM) IC50 (IL-23R [2]): < 1 nM

B9: SEQ ID NO: 242 (peptide)
peptide: XNTXKXXXXKNX
modifications: Ac-[Pen]-NT-[W(7-Me)]-[Lys(Ac)]-[Pen]-Phe[4-(2-aminoethoxy)]-[2-Nal]-[a-MeLys]-[Lys(Ac)]-N-[bA]-NH2; Pen-Pen disulfide
- NK Cell Assay (nM) IC50 (IL-23R [1]): < 10 nM
- pStat3 HTRF (nM) IC50 (IL-23R [2]): < 1 nM

Now from value to binder:

- NK Cell Assay (nM) IC50 (IL-23R [1]): < 10 nM
- pStat3 HTRF (nM) IC50 (IL-23R [2]): < 1 nM
B1: SEQ ID NO: 251 (peptide)
peptide: XNTXKXXXXKNV
modifications: Ac-[Pen]-NT-[W(7-Me)]-[Lys(Ac)]-[Pen]-Phe[4-(2-aminoethoxy)]-[2-Nal]-[a-MeLys]-[Lys(Ac)]-N-[(D)Val]-NH2; Pen-Pen disulfide

- NK Cell Assay (nM) IC50 (IL-23R [1]): < 10 nM
- pStat3 HTRF (nM) IC50 (IL-23R [2]): < 1 nM
Binder: Ac-[Pen]NT[Trp(7-Me)][Cit][Pen][AEF][2Nal][αMeK]K(Ac)N[dS]-NH2 (disulfide 1-6 (inferred)) [SEQ ID NO: 261]

- NK Cell Assay (nM) IC50 (IL-23R [1]): < 10 nM
- pStat3 HTRF (nM) IC50 (IL-23R [2]): < 1 nM
B3: SEQ ID NO: 252 (peptide)
peptide: XNTXKXXXXKNK
modifications: Ac-[Pen]-NT-[W(7-Me)]-[Lys(Ac)]-[Pen]-Phe[4-(2-aminoethoxy)]-[2-Nal]-[a-MeLys]-[Lys(Ac)]-N-[(D)Lys]-NH2; Pen-Pen disulfide

- NK Cell Assay (nM) IC50 (IL-23R [1]): < 10 nM
Binder: Ac-[Pen]NT[Trp(7-Me)]K(Ac)[Pen][2Nal][2Nal][αMeK]K(Ac)N[dL]-NH2 (disulfide 1-6 (inferred)) [SEQ ID NO: 289]

- NK Cell Assay (nM) IC50 (IL-23R [1]): < 10 nM
B5: SEQ ID NO: 273 (peptide)
peptide: XNTXKXXXXEXX
modifications: Ac-[Pen]-N-T-[W(7-Me)]-[Lys(Ac)]-[Pen]-Phe[4-(2-aminoethoxy)]-[2-Nal]-[a-MeLys]-E-[bA]-[bA]-NH2; Pen-Pen disulfide

- NK Cell Assay (nM) IC50 (IL-23R [1]): < 10 nM
- pStat3 HTRF (nM) IC50 (IL-23R [2]): > 100 nM
B7: SEQ ID NO: 223 (peptide)
peptide: XNTXQXXXXKXX
modifications: Ac-[Pen]-NT-[W(7-Me)]-Q-[Pen]-Phe[4-(2-aminoethoxy)]-[2-Nal]-[a-MeLeu]-[Lys(Ac)]-[N-MeAla]-[bA]-NH2; Pen-Pen disulfide

- NK Cell Assay (nM) IC50 (IL-23R [1]): < 10 nM
- pStat3 HTRF (nM) IC50 (IL-23R [2]): < 1 nM
B8: SEQ ID NO: 258 (peptide)
peptide: XNTXKXXXXKNF
modifications: Ac-[Pen]-NT-[W(7-Me)]-[Lys(Ac)]-[Pen]-Phe[4-(2-aminoethoxy)]-[2-Nal]-[a-MeLys]-[Lys(Ac)]-N-[(D)Phe]-NH2; Pen-Pen disulfide

- NK Cell Assay (nM) IC50 (IL-23R [1]): < 10 nM
- pStat3 HTRF (nM) IC50 (IL-23R [2]): < 1 nM
Binder: Ac-[Pen]NT[Trp(7-Me)][Cit][Pen][AEF][2Nal][αMeK]K(Ac)N[Aib]-NH2 (disulfide 1-6 (inferred)) [SEQ ID NO: 264]

Source: US20260116921A1, “PEPTIDE INHIBITORS OF INTERLEUKIN-23 RECEPTOR AND THEIR USE TO TREAT INFLAMMATORY DISEASES” (priority 2018, published 2026)
